In IntAct's records for PubMed 23686307:

Molecular target: tf65_human RELA (UniProt Q04206)

Substance	effect of a mutation on the interaction
Bromodomain-containing protein 4 (Homo sapiens) (from UniProt O60885) Y139A;N140A	decreasing interaction
Bromodomain-containing protein 4 (Homo sapiens) (from UniProt O60885) Y139A;N140A;Y432A;N433A	disrupting interaction
Bromodomain-containing protein 4 (Homo sapiens) (from UniProt O60885) Y432A;N433A	decreasing interaction
